Laboratory results taken from patent publication US20170008955A1 (CNJ, published 2017).

Legend:
Aβ42 oligomers = target: T1, Aβ42 oligomers (UniProt P05067 672-713); assay: Biacore (SPR), Aβ oligomer preparation AβO1' (HQ AβO1'); upper end of the range
T1 construct: domain: Aβ42; immobilized preparation containing monomers, low and high molecular weight oligomers; also called Amyloid beta oligomers; Aβ oligomers
Protocol: Using a Biacore™ 3000, Aβ42 oligomers were immobilized (containing monomers, low and high molecular weight oligomers) and BSA (reference surface) on 4 separate flow cells of a biosensorchip. Murine 5E3 or humanized 5E3 IgG1, IgG2, and IgG4 were then diluted, sequentially injected over the different immobilized peptides and antibody binding monitored in real time. Binding data was collected by sequentially injecting buffer blanks, 1/10 dilutions of m5E3 or 1 uM dilutions of hu5E3 control over separate flow cells immobilized with BSA or Aβ42 oligomer on another biosensor chip at a flow rate of 10 μl/minute. Association was allowed for 200 seconds, followed by dissociation for 500 seconds and binding responses collected 10 seconds before the end of the […]. All binding responses were double-referenced by subtracting buffer blanks and BSA reference surface binding.
Results: As shown in FIG. 9A and FIG. 9B, the humanized 5E3 isotypes bound to the Aβ42 oligomer preparation. Affinity constants were determined for hu5E3 IgG1 Aβ42 oligomer preparations.

cSNK:BSA conjugate [1] = target: T2, cSNK:BSA conjugate (bovine, head-to-tail cyclized; conjugated to BSA carrier); assay: BLI (Octet), KD1; unlabelled reference row, taken as hu5E3; unlabelled reference row at the top of the table
T2 construct: also called BSA-cSNK
T2 sequence (P02769 25-607 limits assumed): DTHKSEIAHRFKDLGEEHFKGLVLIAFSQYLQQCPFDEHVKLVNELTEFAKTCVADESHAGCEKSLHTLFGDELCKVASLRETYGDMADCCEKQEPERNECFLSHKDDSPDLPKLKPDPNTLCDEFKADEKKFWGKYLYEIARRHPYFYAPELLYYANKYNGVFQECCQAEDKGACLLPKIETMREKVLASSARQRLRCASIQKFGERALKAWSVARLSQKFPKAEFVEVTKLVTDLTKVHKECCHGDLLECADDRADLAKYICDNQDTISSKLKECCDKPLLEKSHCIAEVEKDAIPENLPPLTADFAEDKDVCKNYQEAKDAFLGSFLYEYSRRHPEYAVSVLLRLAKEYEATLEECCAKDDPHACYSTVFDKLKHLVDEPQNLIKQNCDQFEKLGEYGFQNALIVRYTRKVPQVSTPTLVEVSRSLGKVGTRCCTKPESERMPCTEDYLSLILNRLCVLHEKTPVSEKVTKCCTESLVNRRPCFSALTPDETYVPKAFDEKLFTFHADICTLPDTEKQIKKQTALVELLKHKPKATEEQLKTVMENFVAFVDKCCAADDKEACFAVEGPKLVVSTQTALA

cSNK:BSA conjugate [2] = target: T2, cSNK:BSA conjugate; assay: BLI 2:1 fit, site 1 (KD1); 25 nM row
Protocol: (§1) Biolayer interferometry (Octet […], ForteBio) was used to qualitatively/quantitatively assess the interactions between humanized versions of 5E3 and cSNK:BSA conjugate. […] MAbs were loaded onto sensors and then washed in PBST. Each sensor was associated with one of several cSNK:BSA standards (100 nM to 0 nM) and then washed in PBST. Data was processed statistically using ForteBio Data Analysis software to determine the strength of antigen-antibody binding (KD). For each mAb analyzed, a 2:1 model provided the “best fit”.

cSNK:BSA conjugate [3] = target: T2, cSNK:BSA conjugate; assay: BLI 2:1 fit, site 1 (KD1); 50 nM row
Protocol: as §1

cSNK:BSA conjugate [4] = target: T2, cSNK:BSA conjugate; assay: BLI 2:1 fit, site 1 (KD1); 100 nM row
Protocol: as §1

cSNK:BSA conjugate [5] = target: T2, cSNK:BSA conjugate; assay: BLI 2:1 fit, site 1 (KD1); 12.5 nM row
Protocol: as §1

T1 sequence (P05067 672-713 limits assumed): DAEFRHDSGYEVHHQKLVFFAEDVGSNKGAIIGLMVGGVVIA

Row | Binder | Kd (Aβ42 oligomers) [µM] | Kd (cSNK:BSA conjugate [1]) [nM] | Kd (cSNK:BSA conjugate [2]) [nM] | Kd (cSNK:BSA conjugate [3]) [nM] | Kd (cSNK:BSA conjugate [4]) [nM] | Kd (cSNK:BSA conjugate [5]) [nM]
1 | hu5E3-IgG1 (antibody, V domains shown, human IgG1/kappa; also called humanized 5E3 IgG1; IHA variant) VH: QVQLQQSGPEVKKPGASVKISCKASGYIFTSYYIQWVIHAPGQGLEWIGWIYPGNVNTKYNEKFKGKATLTADKSSSTAYMELSSLTSEDTAVYFCARMDYEAHYWGQGTTVTVSS VL: DIQMTQSPSSLSASVGDRVTITCRASQEISGYLTWLQQKPEGAIKRLIYAASTLDSGVPKRFSGSRSGSDYSLTISSLQPEDFATYNCLQYANYPRTFGGGTKLEIK | ≤ 51.7 | 6.27 | – | – | – | –
2 | rehu5E3-IgG4 (antibody, V domains shown, human IgG4/kappa; also called IgG4 rehu version) VH: QVQLQQSGPEVVKPGASVKISCKASGYIFTSYYIQWVIHAPGQGLEWIGWIYPGNVNTKYNEKFKGKATLTADKSSSTAYMELSSLRSEDSAVYFCARMDYEAHYWGQGTLVTVSS VL: DIQMTQSPSSLSASLGDRVTLTCRASQEISGYLTWLQQKPEKAIKRLIYAASTLDSGVPKRFSGSRSGSDYTLTISSLQPEDFADYNCLQYANYPRTFGGGTKLEIK | – | – | 0.557 | 0.557 | 0.557 | 0.557
